Substitutions are numbered along the chain they refer to.
B1: C-45 (antibody, V domains shown)
VH: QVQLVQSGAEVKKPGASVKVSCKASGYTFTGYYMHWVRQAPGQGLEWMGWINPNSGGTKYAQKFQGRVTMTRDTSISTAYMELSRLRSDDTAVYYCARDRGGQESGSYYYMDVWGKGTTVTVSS
VL: DIQMTQSPSSVSASVGDRVTITCRASQGISSWLAWYQQKPGKAPKLLIYAASSLQSGVPSRFSGSGSGTDFTLTISSLQPEDFATYYCQQAYSFPTFGGGTKVEIK
notes: human IgG1
B2: C-43 (antibody, V domains shown)
VH: QVQLVQSGAEVKKPGASVKVSCKASGYTFTSYYMHWVRQAPGQGLEWMGVINPSGGSTSYAQKFQGRVTMTRDTSTSTVYMELSSLRSEDTAVYYCAREEAVAADLGVDVWGQGTTVTVSS
VL: not shown
notes: human IgG1
B3: C-59 (antibody, V domains shown)
VH: B2 VH with E100G, V102N, A103Y, A104D, D105S, L106S, V108L, V110A, T116L
VL: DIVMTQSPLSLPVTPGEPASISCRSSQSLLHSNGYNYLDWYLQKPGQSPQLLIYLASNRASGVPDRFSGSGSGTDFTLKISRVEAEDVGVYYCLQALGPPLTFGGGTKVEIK
notes: human IgG1
B4: C-24 (antibody, V domains shown)
VH: B2 VH with E100S, A101Q, V102Y, A103Y, A104D, D105V, L106H, V108M
VL: DIQMTQSPSSLSASVGDRVTITCRASQSISSYLNWYQQKPGKAPKLLIYAASSLQSGVPSRFSGSGSGTDFTLTISSLQPEDFATYYCQQSVTPPLTFGGGTKVEIK
notes: human IgG1
B5: C-27 (antibody, V domains shown)
VH: B2 VH with E100S, A101Q, V102Y, A103Y, A104D, D105V, L106H, V108M
VL: B4 VL with S91H, V92Y, T93D, P94I
notes: human IgG1
B6: C-44 (antibody, V domains shown)
VH: QLQLQESGPGLVKPSETLSLTCTVSGGSISSSSYAWGWIRQPPGKGLEWIGSIYYSGSTYYNPSLKSRVTISVDTSKNQFSLKLSSVTAADTAVYYCAREGYVAAYGMDVWGQGTTVTVSS
VL: B4 VL with S91A, V92Y, T93Y, L96W
notes: human IgG1
B7: C-56 (antibody, V domains shown)
VH: EVQLVESGGGLVQPGGSLRLSCAASGFTFSSYWMSWVRQAPGKGLEWVANIKQDGSEKYYVDSVKGRFTISRDNAKNSLYLQMNSLRAEDTAVYYCARDYGSVAGTPFDYWGQGTLVTVSS
VL: B4 VL with S91V, V92L, T93H, P94T
notes: human IgG1
B8: C-5 (antibody, V domains shown)
VH: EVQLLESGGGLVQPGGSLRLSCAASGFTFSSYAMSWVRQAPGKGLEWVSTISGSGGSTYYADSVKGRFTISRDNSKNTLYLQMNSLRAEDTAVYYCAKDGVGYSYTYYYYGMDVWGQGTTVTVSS
VL: EIVLTQSPGTLSLSPGERATLSCRASQSVSSSFLAWYQQKPGQAPRLLIYGASSRATGIPDRFSGSGSGTDFTLTISRLEPEDFAVYYCQQVSSFPPTFGGGTKVEIK
notes: human IgG1
B9: C-57 (antibody, V domains shown)
VH: EVQLVESGGGLVQPGGSLRLSCAASGFTFSSYSMNWVRQAPGKGLEWVSYISSSSSTIYYADSVKGRFTISRDNAKNSLYLQMNSLRAEDTAVYYCARGGEGRPYLDIWGQGTMVTVSS
VL: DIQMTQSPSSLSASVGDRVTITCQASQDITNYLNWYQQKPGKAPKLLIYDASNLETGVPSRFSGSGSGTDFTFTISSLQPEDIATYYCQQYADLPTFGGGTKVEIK
notes: human IgG1
B10: C-41 (antibody, V domains shown)
VH: QLQLQESGPGLVKPSETLSLTCTVSGGSISSSSYYWGWIRQPPGKGLEWIGSISYSGSTYYNPSLKSRVTISVDTSKNQFSLKLSSVTAADTAVYYCAREGGKGMDVWGQGTLVTVSS
VL: EIVLTQSPGTLSLSPGERATLSCRASQSVSSSFLAWYQQKPGQAPRLLIYGASSRATGIPDRFSGSGSGTDFTLTISRLEPEDFAVYYCQQFGDLPTFGGGTKVEIK
notes: human IgG1

What was measured:
[1] = target: T1, human CD33 Fc fusion protein (human, UniProt P20138 18-259); assay: RBC adhesion to plate-bound CD33-Fc; antibody 0.5 ug/ml;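 note: Plate-coated CD33-Fc preincubated 1 h with antibody, then red blood cells added for 1 h at room temperature, adherent cells lysed and quantified via peroxidase activity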
T1 construct: also called hCD33-Fc; human CD33/Fc chimera (R&D Systems)
Protocol: Briefly, 5 ug/ml CD33-Fc was coated overnight at RT in 96 well Immunolon plates, then washed with PBS, blocked for one hour with binding buffer (PBS containing %0.25 BSA 1 mM CaCl₂). CD33 antibodies (0.5 ug/ml or 1.0 ug/ml) or Fabs (25 ug/ml) were bound for one hour at RT with gentle rocking. After removal of unbound antibody, red blood cells were added to each well at a concentration of 3.0×10⁶ cells per ml and incubated at RT for one hour. Unbound RBCs were then carefully washed off 3× with PBS, and water was added to each well for hypotonic lysis of bound RBCs. The plate was transferred to −80° C. for 10 minutes, followed by 37° C. for 15 minutes. Bound RBCs were detected by peroxidase activity, followed by 2N sulfuric acid to stop the reaction.

human CD33 [2] = target: T2, human CD33 (human, UniProt P20138 18-364); assay: flow cytometry, human primary monocytes; set-up: reference not given here;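 note: binding of anti-CD33 antibodies at 10 ug/ml to human primary monocytes, 1 h on ice, detected by PE-labelled secondary antibody, flow cytometry readout as mean fluorescence intensity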
T2 construct: CD33 on human primary dendritic cells, macrophages, monocytes and T cells and on CHO cells expressing recombinant human CD33; also called Siglec-3; hCD33

human CD33 [3] = target: T2, human CD33; assay: flow cytometry, human primary dendritic cells;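 note: binding of anti-CD33 antibodies (10 ug/ml, 1 h on ice) to human primary dendritic cells, detected with a PE-labelled secondary antibody, reported as flow cytometry MFI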
[4] = target: T1, human CD33 Fc fusion protein; assay: RBC adhesion to plate-bound CD33-Fc; antibody 1.0 ug/ml;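 note: red blood cells adhering to plate-coated CD33-Fc after 1 h antibody pretreatment, then 1 h at room temperature, bound cells read as peroxidase activity after lysis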
human CD33 [5] = target: T2, human CD33; assay: flow cytometry, human primary macrophages;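 note: binding of CD33 antibodies at 10 µg/ml to human primary macrophages, 1 h on ice, detected with PE-labelled secondary antibody by flow cytometry, reported as MFI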
human CD33 [6] = target: T2, human CD33; assay: cell-based or functional assay
[7] = target: T3, mouse CD33 Fc fusion protein (mouse, UniProt Q63994 18-240, limits assumed); assay: ForteBio BLI or MSD-SET
T3 construct: also called mCD33-Fc
T3 sequence: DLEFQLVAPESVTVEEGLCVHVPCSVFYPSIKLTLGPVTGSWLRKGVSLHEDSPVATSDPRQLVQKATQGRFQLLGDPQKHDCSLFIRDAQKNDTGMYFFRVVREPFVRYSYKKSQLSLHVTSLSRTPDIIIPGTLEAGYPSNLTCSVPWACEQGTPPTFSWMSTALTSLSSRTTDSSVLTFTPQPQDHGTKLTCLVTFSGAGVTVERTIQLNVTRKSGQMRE

human CD33 [8] = target: T2, human CD33; assay: flow cytometry, human primary T cells;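 note: binding of anti-CD33 antibodies at 10 ug/ml to human primary T cells, 1 h on ice, detected with PE-labelled secondary antibody, read as flow cytometry MFI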
[9] = target: T4, human monomeric His tagged CD33 protein (human, UniProt P20138 18-259); assay: ForteBio BLI or MSD-SET, IgG, monomeric antigen;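 note: BLI: antibodies captured on AHQ sensors, 100 nM antigen association 5 min, dissociation 5 min, 1:1 fit. MSD-SET: antigen fixed at 50 pM, antibody titrated, quadratic fit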
T4 construct: also called hCD33-His

[10] = target: T1, human CD33 Fc fusion protein; assay: ForteBio BLI or MSD-SET, IgG, avid;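 note: Anti-CD33 IgG affinity by BLI, IgG captured on AHQ sensors with antigen in solution and a one-to-one kinetic fit, or by MSD solution equilibrium titration with quadratic fit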
Protocol: The binding affinity of each anti-CD33 antibody was determined by measuring their KD by ForteBio or MSD-SET. […] Briefly, ForteBio affinity measurements were performed by loading IgGs on-line onto AHQ sensors. Sensors were equilibrated off-line in assay buffer for 30 min and then monitored on-line for 60 seconds for baseline establishment. Sensors with loaded IgGs were exposed to 100 nM antigen for 5 minutes, then transferred to assay buffer for 5 min for off-rate measurement. Kinetics were analyzed using the 1:1 binding model.
Solution equilibrium titrations (SET) were performed in PBS+0.1% IgG-Free BSA (PBSF) with antigen held constant at 50 pM and incubated with 3-to 5-fold serial dilutions of antibody starting at 10 nM. Antibodies (20 nM in PBS) were coated onto standard bind MSD-ECL plates overnight at 4° C. or at room temperature for 30 min. Plates were then blocked for 30 min with shaking at 700 rpm, followed by three washes with wash buffer (PBSF+0.05% Tween 20). SET samples were applied and incubated on the plates for 150s with shaking at 700 rpm followed by one wash. Antigen captured on a plate was detected with 250 ng/mL sulfotag-labeled streptavidin in PBSF by incubation on the plate for 3 min. The plates were washed three times with wash buffer and then read on the MSD Sector Imager 2400 instrument using 1× Read Buffer T with surfactant. The percent free antigen was plotted as a function of titrated antibody in Prism and fit to a quadratic equation to extract the KD. To improve throughput, liquid handling robots were used throughout MSD-SET experiments, including SET sample preparation.

T1 sequence (P20138 18-259 limits assumed): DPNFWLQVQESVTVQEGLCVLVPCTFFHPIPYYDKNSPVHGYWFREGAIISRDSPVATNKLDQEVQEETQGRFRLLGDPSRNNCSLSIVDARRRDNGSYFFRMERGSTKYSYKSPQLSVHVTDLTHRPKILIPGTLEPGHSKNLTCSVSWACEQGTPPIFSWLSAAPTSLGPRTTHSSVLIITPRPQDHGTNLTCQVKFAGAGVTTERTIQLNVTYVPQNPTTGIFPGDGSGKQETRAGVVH
T4 sequence (P20138 18-259 limits assumed): as above
T2 sequence (P20138 18-364): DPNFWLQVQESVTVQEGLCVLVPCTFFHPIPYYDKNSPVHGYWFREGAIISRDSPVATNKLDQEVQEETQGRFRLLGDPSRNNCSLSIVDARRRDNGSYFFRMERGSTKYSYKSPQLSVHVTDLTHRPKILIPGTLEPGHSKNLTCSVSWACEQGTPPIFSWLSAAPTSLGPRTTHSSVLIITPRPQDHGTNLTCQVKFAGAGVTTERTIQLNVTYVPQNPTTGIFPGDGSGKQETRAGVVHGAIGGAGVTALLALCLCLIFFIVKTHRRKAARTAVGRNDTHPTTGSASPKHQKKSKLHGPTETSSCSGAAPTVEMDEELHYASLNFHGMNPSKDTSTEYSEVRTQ

| Binder | Percent RBC Binding to CD33 [1] [%] | Monocyte MFI (human CD33 [2]) | DC MFI (human CD33 [3]) | Percent RBC Binding to CD33 [4] [%] | Macrophage MFI (human CD33 [5]) | Percent CD33 Surface Expression, DC % CD33 (human CD33 [6]) [%] | Percent CD33 Surface Expression, Monocyte % CD33 (human CD33 [6]) [%] | binding result [7] | T cell MFI (human CD33 [8]) | Kd [9] [nM] | Kd [10] [nM] | Percent CD33 Surface Expression, Macrophage % CD33 (human CD33 [6]) [%] |
| --- | --- | --- | --- | --- | --- | --- | --- | --- | --- | --- | --- | --- |
| B1 | 114 | 182 | 1150 | 110 | 1010 | 65.7 | 78.2 | no binding (tested: 100 nM) | 55.4 | 12.8 | 2.25 |  |
| B2 | 13.8 | 151 | 1500 | 8.99 | 908 | 24.5 | 34.9 | no binding (tested: 100 nM) | 192 | 9.04 | 2.06 | 42.5 |
| B3 | 18.2 | 140 | 1130 | 10.7 | 598 | 24.7 | 37.5 | no binding (tested: 100 nM) | 191 | 9.16 | 1.6 | 41.5 |
| B4 | 13 | 165 | 1230 | 8.98 | 752 | 28.8 | 43.1 | no binding (tested: 100 nM) | 193 | 6.95 | 1.54 | 42.7 |
| B5 | 15.9 | 113 | 1300 | 12.6 | 602 | 37.8 | 39.1 | no binding (tested: 100 nM) | 414 | 10.9 | 1.67 | 46.3 |
| B6 | 13.3 | 161 | 1520 | 10.5 | 892 | 14.7 | 24.8 | no binding (tested: 100 nM) | 310 | 2.62 | 0.612 | 57.3 |
| B7 | 15.7 | 136 | 1560 | 10.5 | 846 | 19.7 | 41.6 | no binding (tested: 100 nM) | 230 | 4.98 | 1.1 | 40 |
| B8 | 19.8 | 177 | 1460 | 13.8 | 866 | 43.1 | 54.7 | no binding (tested: 100 nM) | 357 | 15.6 | 3.17 | 73.3 |
| B9 | 15.8 | 162 | 1490 | 10.6 | 867 | 20.7 | 37.1 | no binding (tested: 100 nM) | 234 | 7.67 | 1.8 | 41.8 |
| B10 | 10.7 | 180 | 1810 | 8.19 | 945 | 18.6 | 40.8 | no binding (tested: 100 nM) | 208 | 4.37 | 1.06 | 39.5 |
